# Starred links: 1 amine or outer side, 2 acyl side, 3 side chain; linkers in the order of their positions; H or OH if unused. Positions of bridges follow the written chain, without caps; N, C: chain ends. Non-standard residues stand in square brackets, D forms with d. Primed or numbered codes have the meaning given here. *: point of attachment. B5(10) = 2-amino-2-(pent-4-en-1-yl)hept-6-enoic acid, bis(4-pentenyl)glycine, stitching residue bearing both staples, C=CCCCC(CCCC=C)(N[*:1])C(=O)[*:2]; PyrS2″ = (S)-3-amino-1-((pent-4-en-1-yloxy)carbonyl)pyrrolidine-3-carboxylic acid (stapling residue), C=CCCCOC(=O)N1CC[C@@](N[*:1])(C(=O)[*:2])C1; B5(4) = 2,2-bis(4-pentenyl)glycine = 2-amino-2-(pent-4-en-1-yl)hept-6-enoic acid (stitching residue), C=CCCCC(CCCC=C)(N[*:1])C(=O)[*:2]; B5(5) = 2,2-bis(4-pentenyl)glycine, 2-amino-2-(pent-4-en-1-yl)hept-6-enoic acid (stitching residue), C=CCCCC(CCCC=C)(N[*:1])C(=O)[*:2]; TfeGA = (S)-2-amino-3-((carboxymethyl)(2,2,2-trifluoroethyl)amino)propanoic acid, O=C([C@H](CN(CC(=O)[*:3])CC(F)(F)F)N[*:1])[*:2]; PyrS2 = (S)-3-amino-1-((pent-4-en-1-yloxy)carbonyl)pyrrolidine-3-carboxylic acid, C=CCCCOC(=O)N1CC[C@@](N[*:1])(C(=O)[*:2])C1; B5(3) = 2,2-bis(4-pentenyl)glycine (stitching residue), C=CCCCC(CCCC=C)(N[*:1])C(=O)[*:2]; Phe(3-COOH) = N[C@@H](Cc1cccc(C(=O)O)c1)C(=O)O; Phe(2-CF3) = N[C@@H](Cc1ccccc1C(F)(F)F)C(=O)O; Phe(2-Cl) = N[C@@H](Cc1ccccc1Cl)C(=O)O; Bta = N[C@@H](Cc1csc2ccccc12)C(=O)O; αAllylPro = C=CC[C@@]1(C(=O)O)CCCN1; tBuAla = CC(C)(C)C[C@H](N)C(=O)O; S8 = C=CCCCCCC[C@](C)(N)C(=O)O; Alaol = C[C@@H](CO)N*
# B1: I-1296 (peptide)
# peptide: Ac-[αAllylPro]DA[B5(10)]NTAAFL[PyrS2]F[Bta]Q-NH2
# modifications: staple 1-4, 4-11; not fully specified; printed as Ac-PL3-Asp-Ala-B5-Asn-Thr-Ala-Ala-Phe-Leu-PyrS2-Phe-BztA-Gln-NH2
# B2: I-563 (peptide)
# peptide: XDLXDDAAFNXFXQ
# modifications: not fully specified; N-terminal Ac; C-terminal NH2; non-natural PL3 (1), B5 (4), S8 (11), BztA (13); stapled PL3-B5 and B5-S8 by olefin metathesis
# notes: Stapled peptide composition; also called Ac-PL3-Asp-Leu-B5-Asp-Asp-Ala-Ala-Phe-Asn-S8-Phe-BztA-Gln-NH2
# B3: I-564 (peptide)
# peptide: Ac-[αAllylPro]DL[B5(5)]DDAAFN[S8]F[Bta]H-NH2
# modifications: staple 1-4, 4-11
# notes: Stapled peptide composition; also called Ac-PL3-Asp-Leu-B5-Asp-Asp-Ala-Ala-Phe-Asn-S8-Phe-BztA-His-NH2
# B4: I-566 (peptide)
# peptide: XDVXDDAAFNXFXQ
# modifications: not fully specified; N-terminal Ac; C-terminal NH2; non-natural PL3 (1), B5 (4), S8 (11), BztA (13); stapled PL3-B5 and B5-S8 by olefin metathesis
# notes: Stapled peptide composition; also called Ac-PL3-Asp-Val-B5-Asp-Asp-Ala-Ala-Phe-Asn-S8-Phe-BztA-Gln-NH2
# B5: I-567 (peptide)
# peptide: XDVXDDAAFNXFXQ
# modifications: not fully specified; N-terminal Ac; C-terminal NH2; non-natural PL3 (1), B5 (4), S8 (11), BztA (13); stapled PL3-B5 and B5-S8 by olefin metathesis
# notes: as for B4
# Tests used:
# [1] = molecular target: T1, beta-catenin in DLD1 TCF/LEF luciferase reporter cells (Homo sapiens (Human), UniProt P35222 1-781); experiment: cell-based or functional assay
# T1 sequence: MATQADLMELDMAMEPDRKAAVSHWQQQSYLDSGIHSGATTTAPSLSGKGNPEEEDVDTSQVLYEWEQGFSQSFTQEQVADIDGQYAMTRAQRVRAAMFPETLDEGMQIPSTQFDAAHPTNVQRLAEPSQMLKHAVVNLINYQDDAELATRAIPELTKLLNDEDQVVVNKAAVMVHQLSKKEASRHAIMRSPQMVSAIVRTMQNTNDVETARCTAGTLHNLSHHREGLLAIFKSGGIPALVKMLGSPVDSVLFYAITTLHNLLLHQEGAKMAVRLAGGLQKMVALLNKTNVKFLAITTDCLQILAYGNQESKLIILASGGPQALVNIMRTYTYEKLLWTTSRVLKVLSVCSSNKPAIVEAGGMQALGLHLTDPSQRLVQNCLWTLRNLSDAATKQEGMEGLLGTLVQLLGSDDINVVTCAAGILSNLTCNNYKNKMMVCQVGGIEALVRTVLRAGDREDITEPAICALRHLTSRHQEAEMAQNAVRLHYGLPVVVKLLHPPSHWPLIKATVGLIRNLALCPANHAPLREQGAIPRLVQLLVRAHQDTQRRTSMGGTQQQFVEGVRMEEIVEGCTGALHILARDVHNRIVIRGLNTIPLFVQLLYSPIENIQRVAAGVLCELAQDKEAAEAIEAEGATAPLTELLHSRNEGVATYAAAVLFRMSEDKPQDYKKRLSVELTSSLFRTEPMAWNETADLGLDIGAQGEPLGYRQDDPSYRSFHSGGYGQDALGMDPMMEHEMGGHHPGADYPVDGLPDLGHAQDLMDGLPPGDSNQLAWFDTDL
# [2] = molecular target: T2, full-length beta-Catenin (Uniprot ID P35222) (Homo sapiens (Human), UniProt P35222 1-781); experiment: fluorescence polarization competition; full-length beta-catenin + 5FAM-TCF4(10-53) probe
# T2 construct: also called bCat; B-Catenin
# T2 sequence: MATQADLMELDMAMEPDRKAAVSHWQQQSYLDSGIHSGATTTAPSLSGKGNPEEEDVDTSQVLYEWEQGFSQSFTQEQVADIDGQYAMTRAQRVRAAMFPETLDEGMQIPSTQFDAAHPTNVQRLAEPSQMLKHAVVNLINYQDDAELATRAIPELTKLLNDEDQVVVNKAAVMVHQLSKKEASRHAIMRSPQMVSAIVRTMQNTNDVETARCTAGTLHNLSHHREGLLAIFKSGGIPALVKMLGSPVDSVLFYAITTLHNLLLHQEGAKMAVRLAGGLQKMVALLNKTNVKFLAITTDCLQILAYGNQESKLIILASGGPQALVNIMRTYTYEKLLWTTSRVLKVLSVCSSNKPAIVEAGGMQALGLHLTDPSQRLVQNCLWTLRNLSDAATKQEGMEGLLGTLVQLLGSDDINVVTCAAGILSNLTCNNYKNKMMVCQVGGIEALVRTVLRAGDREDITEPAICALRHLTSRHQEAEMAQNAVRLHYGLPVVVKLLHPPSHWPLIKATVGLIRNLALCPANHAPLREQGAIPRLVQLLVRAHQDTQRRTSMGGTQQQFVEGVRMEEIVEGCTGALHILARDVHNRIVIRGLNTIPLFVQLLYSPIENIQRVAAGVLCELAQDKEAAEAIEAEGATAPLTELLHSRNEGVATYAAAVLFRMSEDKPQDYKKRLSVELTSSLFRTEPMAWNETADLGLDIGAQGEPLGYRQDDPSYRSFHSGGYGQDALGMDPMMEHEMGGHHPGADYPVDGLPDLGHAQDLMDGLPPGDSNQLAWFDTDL
# Experimental: (§1) The plate was incubated protected from light for 60 minutes at 20° C. prior to read. Reads were performed on a CLARIOstar plate reader (BMG Labtech) in duplicate, and data were fitted to a 1:1 binding model with hill slope using an in-house script. All provided concentrations are final concentrations.
# [3] = molecular target: T3, beta-catenin in DLD1 TCF/LEF luciferase reporter cells (UniProt P35222 1-781); experiment: cell-based or functional assay
# T3 sequence (looked up): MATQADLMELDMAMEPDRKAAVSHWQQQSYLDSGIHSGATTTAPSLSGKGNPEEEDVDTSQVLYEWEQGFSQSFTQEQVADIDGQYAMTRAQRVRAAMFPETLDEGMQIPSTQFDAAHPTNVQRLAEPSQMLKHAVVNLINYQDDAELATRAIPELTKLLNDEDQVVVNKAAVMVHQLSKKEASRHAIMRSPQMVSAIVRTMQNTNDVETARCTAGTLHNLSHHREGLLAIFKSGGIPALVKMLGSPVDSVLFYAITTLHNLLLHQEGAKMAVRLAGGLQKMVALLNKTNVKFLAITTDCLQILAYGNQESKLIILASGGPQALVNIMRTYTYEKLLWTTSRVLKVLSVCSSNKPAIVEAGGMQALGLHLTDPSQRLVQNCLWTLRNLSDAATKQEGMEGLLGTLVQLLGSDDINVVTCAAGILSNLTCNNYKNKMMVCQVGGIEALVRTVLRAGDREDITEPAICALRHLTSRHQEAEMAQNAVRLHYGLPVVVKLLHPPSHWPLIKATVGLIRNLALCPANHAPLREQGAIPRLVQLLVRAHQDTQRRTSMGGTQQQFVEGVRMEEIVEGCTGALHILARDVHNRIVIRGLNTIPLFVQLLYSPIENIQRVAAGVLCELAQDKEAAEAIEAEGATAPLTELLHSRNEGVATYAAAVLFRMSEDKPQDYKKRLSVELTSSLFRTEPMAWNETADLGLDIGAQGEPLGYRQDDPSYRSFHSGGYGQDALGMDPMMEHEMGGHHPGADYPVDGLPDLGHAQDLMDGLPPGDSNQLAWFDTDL
# [4] = molecular target: T4, full-length beta-Catenin (Uniprot ID P35222) (Homo sapiens (Human), UniProt P35222 1-781); experiment: competition fluorescence polarization; full-length beta-catenin, 5FAM-TCF4(10-53) probe as competitor
# T4 construct: also called bCat; B-Catenin
# T4 sequence: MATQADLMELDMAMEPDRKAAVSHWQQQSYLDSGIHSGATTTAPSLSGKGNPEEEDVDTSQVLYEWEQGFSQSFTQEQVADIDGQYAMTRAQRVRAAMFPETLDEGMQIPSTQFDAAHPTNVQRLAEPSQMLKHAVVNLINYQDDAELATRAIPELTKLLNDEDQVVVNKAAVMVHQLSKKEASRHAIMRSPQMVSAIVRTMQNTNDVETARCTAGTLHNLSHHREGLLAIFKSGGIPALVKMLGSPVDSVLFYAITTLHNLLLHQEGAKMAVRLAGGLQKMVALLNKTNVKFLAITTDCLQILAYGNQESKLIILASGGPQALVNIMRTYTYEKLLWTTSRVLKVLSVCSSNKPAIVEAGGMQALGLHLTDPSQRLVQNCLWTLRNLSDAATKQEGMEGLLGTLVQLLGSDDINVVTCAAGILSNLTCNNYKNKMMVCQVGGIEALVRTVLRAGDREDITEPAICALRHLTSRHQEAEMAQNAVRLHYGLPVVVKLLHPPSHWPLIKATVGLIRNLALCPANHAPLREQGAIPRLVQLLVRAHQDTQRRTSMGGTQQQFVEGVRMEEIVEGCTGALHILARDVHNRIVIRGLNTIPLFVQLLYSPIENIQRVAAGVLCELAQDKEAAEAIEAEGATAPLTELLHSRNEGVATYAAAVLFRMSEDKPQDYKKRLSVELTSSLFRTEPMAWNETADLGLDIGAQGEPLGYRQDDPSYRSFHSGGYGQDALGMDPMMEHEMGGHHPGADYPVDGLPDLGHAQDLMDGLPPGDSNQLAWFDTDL
# Experimental: as §1
# B-cat-Halo = molecular target: T5, B-cat-Halo (UniProt P35222 1-781); experiment: NanoBRET Abs IC50 in HEK293 cells; Bcat-Halo, TCF4-Luc as competitor
# T5 construct: Expressed by transfection in HEK293 cells for the NanoBRET assay; also called beta-catenin HaloTag NanoBRET construct; not shown: HaloTag
# T5 sequence (looked up): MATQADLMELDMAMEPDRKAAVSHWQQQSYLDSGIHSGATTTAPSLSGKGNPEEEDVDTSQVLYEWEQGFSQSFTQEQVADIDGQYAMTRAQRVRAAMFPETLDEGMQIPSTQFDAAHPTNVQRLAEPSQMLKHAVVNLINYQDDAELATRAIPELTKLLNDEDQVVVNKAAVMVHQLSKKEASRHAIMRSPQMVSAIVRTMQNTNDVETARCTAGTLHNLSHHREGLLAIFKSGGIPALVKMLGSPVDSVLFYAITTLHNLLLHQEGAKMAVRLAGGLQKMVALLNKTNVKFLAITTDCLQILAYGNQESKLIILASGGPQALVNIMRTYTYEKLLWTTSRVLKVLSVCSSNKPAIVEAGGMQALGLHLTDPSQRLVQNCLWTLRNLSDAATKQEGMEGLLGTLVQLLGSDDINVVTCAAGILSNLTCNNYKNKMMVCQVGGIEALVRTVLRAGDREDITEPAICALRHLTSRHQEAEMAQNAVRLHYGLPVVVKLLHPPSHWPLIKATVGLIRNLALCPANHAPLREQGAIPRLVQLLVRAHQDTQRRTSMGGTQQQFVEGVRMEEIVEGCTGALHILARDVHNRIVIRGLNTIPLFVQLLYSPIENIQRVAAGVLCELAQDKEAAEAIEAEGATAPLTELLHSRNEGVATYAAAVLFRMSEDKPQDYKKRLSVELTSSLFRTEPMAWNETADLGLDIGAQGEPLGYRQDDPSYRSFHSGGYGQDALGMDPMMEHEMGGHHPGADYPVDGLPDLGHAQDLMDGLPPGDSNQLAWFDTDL
binder,measurement,setting,value
"Ac-[αAllylPro]D[tBuAla][B5(4)]D[TfeGA]AAFT[PyrS2″][Phe(2-Cl)][Bta]-Alaol (staple 1-4, 4-11) [I-1242]",DLD1 4% Abs IC50,[1],3800 nM
B1,EC50,[2],3780 nM
"Ac-[αAllylPro]D[tBuAla][B5(3)]D[Phe(3-COOH)]AAFL[PyrS2″][Phe(2-CF3)][Bta]QLA-NH2 (staple 1-4, 4-11) [I-2378]",DLD1 4% Abs IC50,[3],1000 nM
B2,IC50,[4],19 nM
same,IC50,B-cat-Halo,15700 nM
B3,IC50,[4],36 nM
same,IC50,B-cat-Halo,> 20000 nM
B4,IC50,[4],76 nM
B5,IC50,[4],37 nM
